Experiments:
Type in all cases: cell-based
[1] = test system: primary human B cells; assay: IgG secretion by stimulated primary human B cells (AlphaLISA); settings: for IC50: pre-incubated 30 minutes, TLR7 agonist for 5 days, AlphaLISA, read-out: IgG production
Description: (§1) A library of conditioned cell culture supernatants with secreted proteins was added and IgG secretion and cell viability (CTG, CellTiter-Glo) measured at the end of culture.
IgG was measure by AlphaLISA 5 days after stimulation.
FIG. 3A-1 and FIG. 3A-2 show data from isolated primary human B cells that were stimulated with small molecule TLR7 agonist in the presence of potential LGALS3BP inhibitors and controls (left). Anti-LGALS3BP antibody was added to primary human B cells activated with CpG or anti-IgM/CD40L/CpG (right). IgG secretion was measured 5 days later by AlphaLISA.
(§2) To identify secreted proteins that affect IgG production by B cells a selection of proteins from the human secretome in an IgG secretion assay were screened using primary human B cells. B cells from healthy volunteers were exposed to 1400 recombinantly expressed secreted proteins before activation with a TLR7 small molecule agonist. After 5 days IgG was measured to identify proteins that enhance or inhibit IgG secretion. […] LGALS3BP was independently identified as the most differentially regulated gene in blood from lupus nephritis patients compared to healthy volunteers.
(§3) The effect of anti-LGALS3BP antibodies on IgG secretion by primary human B cells was evaluated. IgG secretion by TLR7 activated B cells was inhibited by almost 90% in presence of anti-LGALS3BP antibody or anti-LGALS3BP F(ab′)2 (74%) to exclude inhibition through FcγRIIb present on B cells (FIGS. 3A-1 and 3A-2). […] The same inhibitory effect of the LGALS3BP antibody was observed when B cells were activated with CpG (94%) or anti-IgM/CD40L/CpG (77%). IgM secretion was inhibited by antibody blockade as well excluding a role of LGALS3BP in isotype switching (FIG. 3B-1, FIG. 3B-2 and FIG. 3B-3). […] IL-6 secretion was measured to investigate if LGALS3BP blockade interferes with TLR7 activation and signaling thereby reducing B cell proliferation. A 37% decrease in IL-6 production was observed 48 h after B cell stimulation in the presence of anti-LGALS3BP antibody. This reduction was LGALS3BP specific and not mediated through FcγRIIb given the same effect was measured in the presence of Fc block or with anti-LGALS3BP F(ab′)2. Lactose also had the same effect, thereby, excluding a direct effect of the antibody through cross-linking the surface-bound protein. […] To test if anti-LGALS3BP antibodies reduce B cell survival by blocking B cell activation CD69 upregulation was measured 16 h after activation with TLR7 agonist (FIG. 3C-1, FIG. 3C-2 and FIG. 3C-3). No difference in percentage of CD69^+ activated cells or expression levels of CD69 was observed when an anti-LGALS3BP antibody was added. LGALS3BP blockade inhibits IgG secretion independent of the stimulation protocol used. To determine if LGALS3BP blockade has an effect on B cell survival in the absence of stimulation additional experiments were conducted. Adding the antibody to non-stimulated B cells reduced viability by 66% (FIG. 3D-1 and FIG. 3D-2). This effect was most pronounced in B cells.
(§4) Primary B cells from healthy human donors were stimulated in the presence of galectin-3 inhibitors in order to determine if galectin-3 plays a role in the function of LGALS3BP in B cell biology. Specifically, freshly isolated B cells from healthy volunteers were pre-incubated with galectin-3 (Gal-3) inhibitors for 30 minutes before stimulation with TLR7 agonist for 5 days. Supernatants were harvested and IgG measured by AlphaLISA. Cell viability was measured by CellTiter-Glo (ATP production).

[2] = test system: primary human B cells; assay: Viability of TLR7 agonist-stimulated B cells (CellTiter-Glo, ATP); settings: for IC50: pre-incubated 30 minutes, TLR7 agonist for 5 days, CellTiter-Glo
Description: as §1
B cell viability was measured 5 days later by CellTiter-Glo.
as §2, §4

[3] = test system: primary human B cells; assay: IL-6 secretion by TLR7 agonist-activated B cells (AlphaLISA); settings: 48 h after B cell stimulation with TLR7 agonist
Description: IL-6 secretion was measured 2 days after stimulation by AlphaLISA.
as §3, with “F(ab′)2.” for “F(ab′)2. Lactose also had the same effect, thereby, excluding a direct effect of the antibody through cross-linking the surface-bound protein.”, “No difference in percentage of CD69^+ activated cells or expression levels of CD69 was observed when an anti-LGALS3BP antibody was added. LGALS3BP blockade inhibits IgG secretion independent of the stimulation protocol used. To determine if LGALS3BP blockade has an effect on B cell survival in the absence of stimulation additional experiments were conducted. Adding the antibody to non-stimulated B cells reduced viability by 66% (FIG. 3D-1 and FIG. 3D-2). This effect was most pronounced in B cells.” left out

[4] = test system: primary human B cells; assay: B cell activation, CD69 expression by flow cytometry; settings: 16 h after stimulation with TLR7 agonist
Description: FIG. 2A-1 and FIG. 2A-2 show data from B cells stimulated with small molecule TLR7 agonist in the presence of increasing concentrations of purified recombinant LGALS3BP. B cell activation was measured 16 h later by flow cytometry quantifying CD69 expression.
To investigate if addition of LGALS3BP affects activation of naïve B cells CD69 expression was measured 16 h after stimulation with TLR7 agonist. All B cells had increased CD69 expression compared to non-stimulated cells but no change was seen upon addition of various concentrations of recombinant LGALS3BP (FIG. 2A-1 and FIG. 2A-2). The localization of endogenous LGALS3BP in primary human B cells with an antibody specific for LGALS3BP was then evaluated (FIG. 2b). […]
The effect of anti-LGALS3BP antibodies on IgG secretion by primary human B cells was evaluated. […] IL-6 secretion was measured to investigate if LGALS3BP blockade interferes with TLR7 activation and signaling thereby reducing B cell proliferation. […] This reduction was LGALS3BP specific and not mediated through FcγRIIb given the same effect was measured in the presence of Fc block or with anti-LGALS3BP F(ab′)2. […] To test if anti-LGALS3BP antibodies reduce B cell survival by blocking B cell activation CD69 upregulation was measured 16 h after activation with TLR7 agonist (FIG. 3C-1, FIG. 3C-2 and FIG. 3C-3). […]

[5] = test system: primary human macrophages; assay: LGALS3BP induction in in vitro differentiated macrophages (QPCR, ELISA)
From the text: Expression between samples was normalized using HPRT1 as a housekeeping gene. […] LGALS3BP has an IRF binding site consistent with regulation by type I interferons. To determine which pathways can induce LGALS3BP expression, primary human monocytes were differentiated into macrophages in vitro and subsequently were stimulated with IFN-α, IFN-γ, TLR4 agonist (LPS), TLR7/8 agonist (resiquimod) and TLR9 agonist (CpG). […] All stimuli induced secretion of IL-6.

CCCO[C@@H]1O[C@H](CO)[C@@H](O[C@@H]2O[C@H](CO)[C@H](O)[C@H](O)[C@H]2O)[C@H](O)[C@H]1O [Beta n-propal lactoside, reference compound]
IC50 [1]: > 10 µM
IC50 [2]: > 10 µM

CC(=O)N[C@H]1C(O)O[C@H](CO)[C@@H](O[C@@H]2O[C@H](CO)[C@H](O)[C@H](O)[C@H]2O)[C@@H]1O (stereo partly drawn) [LacNAc, N-Acetyl-D-lactosamine, N-Acetyl-D-lactosamine, reference compound]
IC50 ([1]; Homo sapiens, B-cell): > 10 µM
IC50 ([2]; Homo sapiens, B-cell): > 10 µM

OC[C@H]1O[C@@H](O[C@H]2[C@H](O)[C@@H](O)C(O)O[C@@H]2CO)[C@H](O)[C@@H](O)[C@H]1O (stereo partly drawn) [Lactose, reference compound]
inhibition of IgG secretion ([1]; TLR7 activated B cells, 5 days): 59%
IL-6 production, effect in words [3]: same effect

OC[C@H]1O[C@@](CO)(O[C@H]2O[C@H](CO)[C@@H](O)[C@H](O)[C@H]2O)[C@@H](O)[C@@H]1O [sucrose, reference compound]
IgG secretion, effect in words ([1]; TLR7 activated B cells): did not inhibit IgG secretion

B1: LGALS3BP: secreted scavenger receptor family protein, full length human sequence SEQ ID NO: 1; used as recombinant protein (protein, listed as Homo sapiens)
chain: MTPPRLFWVWLLVAGTQGVNDGDMRLADGGATNQGRVEIFYRGQWGTVCDNLWDLTDASVVCRALGFENATQALGRAAFGQGSGPIMLDEVQCTGTEASLADCKSLGWLKSNCRHERDAGVVCTNETRSTHTLDLSRELSEALGQIFDSQRGCDLSISVNVQGEDALGFCGHTVILTANLEAQALWKEPGSNVTMSVDAECVPMVRDLLRYFYSRRIDITLSSVKCFHKLASAYGARQLQGYCASLFAILLPQDPSFQMPLDLYAYAVATGDALLEKLCLQFLAWNFEALTQAEAWPSVPTDLLQLLLPRSDLAVPSELALLKAVDTWSWGERASHEEVEGLVEKIRFPMMLPEELFELQFNLSLYWSHEALFQKKTLQALEFHTVPFQLLARYKGLNLTEDTYKPRIYTSPTWSAFVTDSSWSARKSQLVYQSRRGPLVKYSSDYFQAPSDYRYYPYQSFQTPQHPSFLFQDKRVSWSLVYLPTIQSCWNYGFSCSSDELPVLGLTKSGGSDRTIAYENKALMLCEGLFVADVTDFEGWKAAIPSALDTNSSKSTSSFPCPAGHFNGFRTVIRPFYLTNSSGVD
increase in IgG ([1]; purified recombinant protein, B cells stimulated with TLR9 agonist CpG): 1.9 fold
enhanced IgG production ([1]; purified recombinant protein, TLR7 agonist, B cells from 6 healthy volunteers, 5 days): 1.6 fold
increase in IgG ([1]; purified recombinant protein, activation cocktail with anti-IgM, CD40L and CpG): 1.2 fold
enhanced IgG secretion ([1]; secretome screen, recombinantly expressed secreted proteins, TLR7 small molecule agonist, 5 days): 4.1 fold
cell viability and metabolic activity (ATP measured by CellTiter-Glo assay) ([2]; secretome screen, TLR7 small molecule agonist, 5 days): doubled
CD69 expression / percentage of CD69+ activated cells [4]: no change

B2: IFN-γ: interferon used as macrophage stimulus (protein, UniProt P01579 24-161, looked up)
Interferon gamma: QDPYVKEAENLKKYFNAGHSDVADNGTLFLGILKNWKEESDRKIMQSQIVSFYFKLFKNFKDDQSIQKSVETIKEDMNVKFFNSNKKKRDDFEKLTNYSVTDLNVQRKAIHELIQVMAELSPAAKTGKRKRSQMLFRG
secretion of the LGALS3BP protein ([5]; ELISA in supernatants, stimuli for 20 h): increased secretion
LGALS3BP mRNA expression ([5]; QPCR, stimuli for 6 h): induced

Source: patent US20180251559A1, “Methods for the Modulation of LGALS3BP to Treat Systemic Lupus Erythematosus” (Merck Patent GmbH, priority 2015, published 2018)
